Measured values published in article PMC5282582.
Numbering of substitutions follows the chain as printed. Numbers in names are those of the source.

T1: γ subunit of human NAD-dependent isocitrate dehydrogenase (human, UniProt P51553 40-393)
T1 construct: γ subunit of human NAD-IDH (IDH3G); the N-terminal 39 residues (mitochondrial signal peptide) were removed during construction; a TEV protease site stood between the subunit and the His6 tag; residues of the site may remain after cleavage; also called IDH3G; regulatory subunit; not shown: His6, C-terminal, cleaved
T1 sequence (looked up): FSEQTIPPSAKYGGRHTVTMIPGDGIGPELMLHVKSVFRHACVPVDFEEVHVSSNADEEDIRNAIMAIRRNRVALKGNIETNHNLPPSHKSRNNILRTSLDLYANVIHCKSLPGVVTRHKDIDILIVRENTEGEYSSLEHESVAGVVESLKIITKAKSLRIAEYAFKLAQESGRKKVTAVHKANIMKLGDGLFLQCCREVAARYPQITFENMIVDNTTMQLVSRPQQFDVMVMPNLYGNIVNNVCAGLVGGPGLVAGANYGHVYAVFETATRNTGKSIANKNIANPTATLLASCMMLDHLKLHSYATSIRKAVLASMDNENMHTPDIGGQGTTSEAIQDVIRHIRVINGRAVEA

B1: mutant α_(Y126F)βαγ heterotetramer of human NAD-dependent isocitrate dehydrogenase (complex)
chain 1: TGGVQTVTLIPGDGIGPEISAAVMKIFDAAKAPIQWEERNVTAIQGPGGKWMIPSEAKESMDKNKMGLKGPLKTPIAAGHPSMNLLLRKTFDLYANVRPCVSIEGYKTPYTDVNIVTIRENTEGEFSGIEHVIVDGVVQSIKLITEGASKRIAEFAFEYARNNHRSNVTAVHKANIMRMSDGLFLQKCREVAESCKDIKFNEMYLDTVCLNMVQDPSQFDVLVMPNLYGDILSDLCAGLIGGLGVTPSGNIGANGVAIFESVHGTAPDIAGKDMANPTALLLSAVMMLRHMGLFDHAARIEAACFATIKDGKSLTKDLGGNAKCSDFTEEICRRVKDLD
chain 2: not shown
chain 3: B1 chain 1 with F126Y
chain 4: T1 sequence (looked up)
B2: mutant αβα_(Y126F)γ heterotetramer of human NAD-dependent isocitrate dehydrogenase (complex)
chain 1: B1 chain 1 with F126Y
chain 2: not shown
chain 3: B1 chain 1
chain 4: T1 sequence (looked up)
B3: α subunit of human NAD-dependent isocitrate dehydrogenase (natural protein, UniProt P50213 28-366, looked up)
chain: B1 chain 1 with F126Y
notes: α subunit of human NAD-IDH (IDH3A); the N-terminal 27 residues (mitochondrial signal peptide) were removed during construction; cloned in the co-expression vector pQlinkN; gene bought from FulenGen in pReceiver-B01/B02; also called IDH3A; catalytic subunit

Tests used:
[1] = target: the molecule itself; experiment: SEC-MALS; 100 μl of purified protein injected at 2 mg/ml (low concentration); Superdex 200 10/300 GL, room temperature, 10 mM HEPES pH 7.4, 200 mM NaCl, 5 mM β-ME, 0.4 ml/min
[2] = target: β subunit of human NAD-dependent isocitrate dehydrogenase (human); experiment: SDS-PAGE of the co-purified complex; subunits co-expressed in E. coli, purified as a complex by the His6 tag of β or γ (Ni-NTA, TEV cleavage, second Ni-NTA, gel filtration); 12% SDS-PAGE with Coomassie blue staining, intensity of the two bands; details: both partners purified
[3] = target: T1, γ subunit of human NAD-dependent …; experiment: as above; details: both partners purified

Sequence of β subunit of human NAD-dependent isocitrate dehydrogenase (human) (chain, as listed by the source): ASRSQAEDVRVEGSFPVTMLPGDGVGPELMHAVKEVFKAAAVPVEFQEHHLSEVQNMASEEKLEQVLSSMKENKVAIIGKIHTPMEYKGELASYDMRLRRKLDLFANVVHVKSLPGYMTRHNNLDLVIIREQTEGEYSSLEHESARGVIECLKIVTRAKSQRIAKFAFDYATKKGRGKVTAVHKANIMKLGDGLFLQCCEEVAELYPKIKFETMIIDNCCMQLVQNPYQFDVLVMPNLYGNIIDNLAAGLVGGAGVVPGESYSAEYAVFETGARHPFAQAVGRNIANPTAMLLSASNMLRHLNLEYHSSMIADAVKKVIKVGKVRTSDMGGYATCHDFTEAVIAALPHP

| Binder | stoichiometry N [1] | stoichiometry N [2] | stoichiometry N [3] |
| --- | --- | --- | --- |
| B1 | 2 | – | – |
| B2 | 2 | – | – |
| B3 | – | 1 | 1 |
